The values below come from US20230048633A1 (SHATTUCK LABS, published 2023).

Sequences and labels used below:
B1: recombinant 4-1BB-His protein (receptor, mouse, UniProt P20334 24-187, looked up)
chain: VQNSCDNCQPGTFCRKYNPVCKSCPPSTFSSIGGQPNCNICRVCAGYFRFKKFCSSTHNAECECIEGFHCLGPQCTRCEKDCRPGQELTKQGCKTCSLGTFNDQNGTGVCRPWTNCSLDGRSVLKTGTTEKDVVCGPPVVSFSPSTTISVTPEGGPGGHSLQVL
notes: also called m4-1BB-His; CD137; not shown: His tag

Test [1] has as its target T1, recombinant mouse 4-1 BB Ligand protein (R&D Systems, Cat. No. 1246-4L) (mouse, UniProt P41274 104-309).
T1 construct: Bought reagent; also called commercially available recombinant mouse 4-1 BB Ligand protein
T1 sequence (looked up): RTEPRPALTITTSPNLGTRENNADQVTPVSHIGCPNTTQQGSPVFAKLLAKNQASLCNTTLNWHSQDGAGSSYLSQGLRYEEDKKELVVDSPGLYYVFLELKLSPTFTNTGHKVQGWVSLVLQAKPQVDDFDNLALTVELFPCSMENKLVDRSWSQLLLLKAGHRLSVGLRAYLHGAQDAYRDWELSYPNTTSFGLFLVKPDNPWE
Kind of test: Octet (4-1BB Arc Octet): 41BB His (5ug/ml, Acro 41B-M52H7) on the tip, All Molecules at 30ug/ml; rm41BBL R&D 1246-4L. The protocol: To study the binding kinetics of type II transmembrane protein domain and TGFBR2 parts of the illustrative TGFBR2-based chimeric proteins, binding assays were performed using the Octet system (ForteBio). Binding of the TGFBR2-Fc-4-1BBL chimeric protein to recombinant 4-1BB was analyzed. Briefly, recombinant 4-1BB-His protein was immobilized and detected using the mTGFBR2-Fc-4-1BBL chimeric protein, a positive control protein comprising Fc-4-1BBL (Control-Fc-4-1BBL) or commercially available recombinant mouse 4-1 BB Ligand protein (R&D Systems, Cat. No. 1246-4L). The binding response of the mTGFBR2-Fc-4-1BBL chimeric protein to 4-1BB-His protein was measured and plotted in real time on a sensorgram trace.
On the technique in general: In BLI a coated tip is dipped into the sample, and binding shifts an interference pattern.

In test [2] the target is B1. Put plainly: ELISA: plate coated with 41BB-His (5ug/ml, Acro 41B-M52H7), titrated protein captured, detected with α-mFc-HRP (1:10k, Jax 115-036-003). The method, then:
The TGFBR2-based chimeric proteins harbor type II transmembrane protein domains at or near the C-terminus. To understand whether the type II transmembrane protein domains from the native chimeric proteins can bind their natural ligands/receptors, ELISA-based assays were performed. TGFBR2-Fc-4-1BBL comprises 4-1BB ligand (4-1BBL or TNFSF9) as the type II membrane protein located at or near the C-terminus. 4-1BB (CD137, TNFRSF9) is the natural receptor/ligand of 4-1BBL. To understand whether the type II transmembrane protein domain part of the native TGFBR2-Fc-4-1BBL chimeric protein can bind 4-1BB, ELISA-based assays were performed. Recombinant 4-1BB-His protein was coated on plates. Increasing amounts of the TGFBR2-Fc-4-1BBL chimeric protein, or a positive control protein comprising Fc-4-1BBL (Control-Fc-4-1BBL) were added for capture by the plate-bound 4-1BB-His protein. Binding was detected using an anti mFc-HRP antibody. […] Therefore, the type II transmembrane protein domain of the TGFBR2-Fc-4-1BBL and Control-Fc-4-1BBL chimeric proteins bind to the natural ligand/receptor of the 4-1BBL.
For orientation: An ELISA detects its analyte on a solid surface through an enzyme-linked reagent.

For test [3], the target named is T2, m4-1BB expressed on CHO-K1 cells (CHO-K1/m4-1BB+ (C20)) (mouse, UniProt P20334 24-256).
T2 construct: whole, on cells; also called CHO-K1/4-1BB cells; 4-1BB expressed by the CHO-K1/4-1BB cells
T2 sequence (looked up): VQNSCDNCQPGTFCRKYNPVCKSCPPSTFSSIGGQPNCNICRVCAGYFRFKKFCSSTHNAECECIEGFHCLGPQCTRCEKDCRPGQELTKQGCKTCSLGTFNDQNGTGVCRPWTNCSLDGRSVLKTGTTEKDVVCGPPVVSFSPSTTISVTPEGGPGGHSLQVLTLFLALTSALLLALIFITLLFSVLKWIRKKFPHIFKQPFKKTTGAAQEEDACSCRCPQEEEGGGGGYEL
Kind of test: flow cytometry on CHO-K1/m4-1BB+ (C20) cells, detected with Anti-mFc-APC (Jax 1:50). The protocol: To understand whether the 4-1BBL part of the mTGFBR2-Fc-4-1BBL chimeric protein can specifically bind cells expressing 4-1BB, cells expressing 4-1 BB were generated. Specifically, the CHO-K1 cells expressing 4-1 BB were generated using standard techniques. Clone 20, a positive clone, called CHO-K1/m4-1BB+ (C20), was used for further studies. To determine whether the mTGFBR2-Fc-4-1BBL chimeric protein can specifically bind the CHO-K1/4-1BB cells, a flow-cytometry-based assay was carried out. CHO-K1/m4-1BB+(C20) and WT CHO-K1 cells were stained with increasing concentrations of the TGFBR2-Fc-4-1BBL chimeric protein, or positive control protein comprising Fc-4-1BBL (Control-Fc-4-1BBL) and analyzed by flow cytometry. Unstained CHO-K1/m4-1BB+ (C20) and WT CHO-K1 cells or CHO-K1/m4-1BB+ (C20) and WT CHO-K1 cells stained without the TGFBR2-Fc-4-1BBL chimeric protein, or positive control protein comprising Fc-4-1BBL (Control-Fc-4-1BBL) were used as control.
(In general: A flow cytometer gives signals particle by particle.)

A further test concerns the target T3, anti-human IgG antibody.
T3 construct: also called anti-human Fc antibody
Put plainly: ELISA: plate coated with Anti-Human IgG (H+L) Jax# 109-005-088, titrated protein captured, detected with HRP Goat anti-human FCgamma Jax# 109-035-008. The method, then: To understand whether the human Fc linkers from the native chimeric proteins can be accessed by anti-human antibodies, ELISA-based assays were performed. For these assays, an anti-human IgG antibody was coated on plates and increasing amounts of the hCD86-Fc-NKG2A, hTGFBR2-Fc-NKG2A, and mCD80-Fc-NKG2a chimeric proteins, and a human IgG antibody were added to the plates for capture by the plate-bound anti-human antibody. The human IgG antibody and the hCD86-Fc-NKG2A chimeric protein were used as a positive control. The mCD80-Fc-NKG2a chimeric protein was included as a negative control as containing a non-human Fc domain. The protein bound to the anti-human IgG antibody was detected using an anti-human Fcgamma HRP.

For B1, the binding result in test [1] is given as “binds”.

B2: mTGFBR2-Fc-4-1BBL chimeric protein (Fc fusion, mouse, UniProt Q62312 24-166, looked up)
chain: IPPHVPKSVNSDVMASDNGGAVKLPQLCKFCDVRLSTCDNQKSCMSNCSITAICEKPHEVCVAVWRKNDKNITLETVCHDPKLTYHGFTLEDAASPKCVMKEKKRAGETFFMCACNMEECNDYIIFSEEYTTSSPDLLLVIIQVPRDCGCKPCICTVPEVSSVFIFPPKPKDVLTITLTPKVTCVVVDISKDDPEVQFSWFVDDVEVHTAQTQPREEQFNSTFRSVSELPIMHQDWLNGKEFKCRVNSAAFPAPIEKTISKTKGRPKAPQVYTIPPPKEQMAKDKVSLTCMITDFFPEDITVEWQWNGQPAENYKNTQPIMNTNGSYFVYSKLNVQKSNWEAGNTFTCSVLHEGLHNHHTEKSLSHSPGKRTEPRPALTITTSPNLGTRENNADQVTPVSHIGCPNTTQQGSPVFAKLLAKNQASLCNTTLNWHSQDGAGSSYLSQGLRYEEDKKELVVDSPGLYYVFLELKLSPTFTNTGHKVQGWVSLVLQAKPQVDDFDNLALTVELFPCSMENKLVDRSWSQLLLLKAGHRLSVGLRAYLHGAQDAYRDWELSYPNTTSFGLFLVKPDNPWE
notes: extracellular domain;domain: hinge-CH2-CH3 Fc domain; also called murine TGFBR2-Fc-4-1BBL; TGFBR2-Fc-CD137L
For orientation: EC50 (read off the curve) means the concentration giving half of the maximal effect. Consider B2, for which the entries for the concentration for a half-maximal effect (EC50 (read off the curve)) in test [2] and in test [3] were approximately 0.07 µg/mL and approximately 0.08 µg/mL, respectively.

B3: hTGFBR2-Fc-NKG2A chimeric protein (Fc fusion)
chain: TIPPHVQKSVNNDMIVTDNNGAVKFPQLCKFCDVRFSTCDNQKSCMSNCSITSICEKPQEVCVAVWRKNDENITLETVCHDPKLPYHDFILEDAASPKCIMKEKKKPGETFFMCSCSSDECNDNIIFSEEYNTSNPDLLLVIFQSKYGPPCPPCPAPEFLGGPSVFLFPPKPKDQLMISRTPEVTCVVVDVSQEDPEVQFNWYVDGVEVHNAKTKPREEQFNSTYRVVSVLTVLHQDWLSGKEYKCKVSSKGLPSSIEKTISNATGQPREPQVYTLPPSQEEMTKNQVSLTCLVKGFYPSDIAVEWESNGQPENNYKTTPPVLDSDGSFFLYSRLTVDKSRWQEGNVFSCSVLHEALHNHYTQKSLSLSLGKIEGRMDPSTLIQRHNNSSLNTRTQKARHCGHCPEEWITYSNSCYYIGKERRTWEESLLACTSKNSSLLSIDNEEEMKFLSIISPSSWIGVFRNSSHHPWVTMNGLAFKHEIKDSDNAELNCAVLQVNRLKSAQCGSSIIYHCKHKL
notes: also called human TGFBR2-Fc-NKG2A
On to B3, for which the “EC50 (read off the curve)” value with anti-human IgG antibody was approximately 10 µg/mL.
